Sequences and labels used below:
B1: Pf12 D1D2 (residues 28-304), untagged [Plasmodium falciparum] / octa-histidine tagged Pf41 D1D2 (residues 21-368) [Plasmodium falciparum] (parent complex)
chain 1: NLTCDFNDVYKLEFHPNQQTSVTKLCNLTPNVLEKVTIKCGSDKLNYNLYPPTCFEEVYASRNMMHLKKIKEFVIGSSMFMRRSLTPNKINEVSFRIPPNMMPEKPIYCFCENKKTITINGSNGNPSSKKDIINRGIVEIIIPSLNEKVKGCDFTTSESTIFSKGYSINEISNKSSNNQQDIVCTVKAHANDLIGFKCPSNYSVEPHDCFVSAFNLSGKNENLENKLKLTNIIMDHYNNTFYSRLPSLISDNWKFFCVCSKDNEKKLVFTVEASISS
chain 2: KSHKCDFTKEKYLLSGEKEVSCEIDANPSDDITFICPNKIDSLCFHTVNISKNINQNKSTMSIQDLLYGSVVYGNTLFISPYVRTNTPFYCFCNLDTVTIQKFLKINRFLKDDDELSEADVMKHLKGGNVSEAQADEYLNKALNRFKKMKDLSKFFNDQADNTTKLNLPKSLNIPNDILNYDVYNSSNNRNDIVVKDEVTNKQIISKRGIMSVFVRSNNNVIKGCDFGNNNKNYFSHPISVAGKVNNKVCKIQGKPGELVGFKCAFEENGKVEPPNCFDQVLHKNKVTDLKTLIPGYASYTNKHSSKYPYYLKIPHFVNEQYTIQCKCKSNNSQNEYTFELDIQPGES

The variants in the test derive from B1. The test is described as follows: BLI; mutant at 1000 nM, 500 nM, and 250 nM; binding to immobilised WT Pf41; parent: 100; read off a plot. (In general: In BLI a coated tip is dipped into the sample, and binding shifts an interference pattern.)
Take chain 1 F214L: the percent of parent was approximately 67 % WT.
Next, chain 1 M79A: approximately 27 % WT; chain 1 M81A: approximately 22 % WT.

These data come from article PMC8930183, “Structure of the Pf12 and Pf41 heterodimeric complex of Plasmodium falciparum 6-cysteine proteins” (FEMS Microbes, 2022).
